From patent publication US20120034160A1 (AbbVie / Abbott, published 2012)

Biological target: T1, Recombinant Human IL-1β (human, UniProt P01584 117-269)
T1 construct: bought reagent; also called IL-1B
Experiment: Biacore SPR; N-terminal VD
Method in brief: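 SPR, 25° C, HBS-EP (10 mM HEPES pH 7.4, 150 mM NaCl, 3 mM EDTA, 0.005% P20). Capture via anti-mouse IgG Fcγ chip; analyte 10−200 nM at 25 μl/min. 1:1 Langmuir global fit; KD = koff/kon.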

Row | Kd [nM] | koff [s⁻¹] | kon [M⁻¹ s⁻¹] | Binder
1 | 0.03 | 4.5e-05 | 1.5e+06 | DVD1272 (bispecific antibody, human IgG1, kappa, V1 wt hIgG1, V2 kappa; also called DVD1272H; DVD1272L) heavy: not shown light: DIQMTQSPSSLSASVGDRVTITCRASGNIHNYLTWYQQTPGKAPKLLIYNAKTLADGVPSRFSGSGSGTDYTFTISSLQPEDIATYYCQHFWSIPYTFGQGTKLQITRTVAAPEIVLTQSPDFQSVTPKEKVTITCRASQDIGSELHWYQQKPDQPPKLLIKYASHSTSGVPSRFSGSGSGTDFTLTINGLEAEDAGTYYCHQTDSLPYTFGPGTKVDIKRTVAAPSVFIFPPSDEQLKSGTASVVCLLNNFYPREAKVQWKVDNALQSGNSQESVTEQDSKDSTYSLSSTLTLSKADYEKHKVYACEVTHQGLSSPVTKSFNRGEC
2 | 0.043 | 7.2e-05 | 1.7e+06 | DVD1282 (bispecific antibody, human IgG1, kappa, V1 wt hIgG1, V2 kappa; also called DVD1282H; DVD1282L) heavy: not shown light: DIQMTQSPSSLSASVGDRVTITCRASGNIHNYLTWYQQTPGKAPKLLIYNAKTLADGVPSRFSGSGSGTDYTFTISSLQPEDIATYYCQHFWSIPYTFGQGTKLQITRTVAAPEIVLTQSPDFQSVTPKEKVTITCRASQNIGSELHWYQQKPDQSPKLLIKYASHSISGVPSRFSGSGSGTDFTLTINGLEAEDAATYYCHQSDTLPHTFGQGTKVDIKRTVAAPSVFIFPPSDEQLKSGTASVVCLLNNFYPREAKVQWKVDNALQSGNSQESVTEQDSKDSTYSLSSTLTLSKADYEKHKVYACEVTHQGLSSPVTKSFNRGEC
3 | 0.031 | 4e-05 | 1.3e+06 | DVD1274 (bispecific antibody, human IgG1, kappa, V1 wt hIgG1, V2 kappa; also called DVD1274H; DVD1274L) heavy: not shown light: DIQMTQSPSSLSASVGDRVTITCRASGNIHNYLTWYQQTPGKAPKLLIYNAKTLADGVPSRFSGSGSGTDYTFTISSLQPEDIATYYCQHFWSIPYTFGQGTKLQITRTVAAPEIVLTQSPDFQSVTPKEKVTITCRASQDIGSELHWYQQKPDQPPKLLIKYASHSTSGVPSRFSGSGSGTDFTLTINGLEAEDAGTYYCHQTDSLPYTFGPGTKVDIKRTVAAPSVFIFPPSDEQLKSGTASVVCLLNNFYPREAKVQWKVDNALQSGNSQESVTEQDSKDSTYSLSSTLTLSKADYEKHKVYACEVTHQGLSSPVTKSFNRGEC
4 | 0.017 | 1.9e-05 | 1.1e+06 | DVD1284 (bispecific antibody, human IgG1, kappa, V1 wt hIgG1, V2 kappa; also called DVD1284H; DVD1284L) heavy: not shown light: DIQMTQSPSSLSASVGDRVTITCRASGNIHNYLTWYQQTPGKAPKLLIYNAKTLADGVPSRFSGSGSGTDYTFTISSLQPEDIATYYCQHFWSIPYTFGQGTKLQITRTVAAPEIVLTQSPDFQSVTPKEKVTITCRASQNIGSELHWYQQKPDQSPKLLIKYASHSISGVPSRFSGSGSGTDFTLTINGLEAEDAATYYCHQSDTLPHTFGQGTKVDIKRTVAAPSVFIFPPSDEQLKSGTASVVCLLNNFYPREAKVQWKVDNALQSGNSQESVTEQDSKDSTYSLSSTLTLSKADYEKHKVYACEVTHQGLSSPVTKSFNRGEC
5 | 0.082 | 0.00045 | 5.6e+06 | DVD1276 (bispecific antibody, human IgG1, kappa, DVD-Ig, outer AB270, inner AB274, linker set 1; V1 wt hIgG1, V2 kappa; also called DVD1276H; DVD1276L) heavy: not shown light: DTQVTQSPSSLSASVGDRVTITCITSTDIDVDMNWYQQKPGKPPKLLISQGNTLRPGVPSRFSSSGSGTDFTFTISSLQPEDFATYYCLQSDNLPLTFGQGTKLEIKRTVAAPEIVLTQSPDFQSVTPKEKVTITCRASQDIGSELHWYQQKPDQPPKLLIKYASHSTSGVPSRFSGSGSGTDFTLTINGLEAEDAGTYYCHQTDSLPYTFGPGTKVDIKRTVAAPSVFIFPPSDEQLKSGTASVVCLLNNFYPREAKVQWKVDNALQSGNSQESVTEQDSKDSTYSLSSTLTLSKADYEKHKVYACEVTHQGLSSPVTKSFNRGEC
6 | 0.08 | 0.00063 | 7.9e+06 | DVD1280 (bispecific antibody, human IgG1, kappa, DVD-Ig, outer AB272, inner AB274, linker set 1; V1 wt hIgG1, V2 kappa; also called DVD1280H; DVD1280L) heavy: not shown light: ETTVTQSPSSLSASVGDRVTITCITSTDIDVDMNWYQQKPGKPPKLLISQGNTLRPGVPSRFSSSGSGTDFTFTISSLQPEDFATYYCLQSDNLPLTFGQGTKLEIKRTVAAPEIVLTQSPDFQSVTPKEKVTITCRASQDIGSELHWYQQKPDQPPKLLIKYASHSTSGVPSRFSGSGSGTDFTLTINGLEAEDAGTYYCHQTDSLPYTFGPGTKVDIKRTVAAPSVFIFPPSDEQLKSGTASVVCLLNNFYPREAKVQWKVDNALQSGNSQESVTEQDSKDSTYSLSSTLTLSKADYEKHKVYACEVTHQGLSSPVTKSFNRGEC
7 | 0.07 | 0.0005 | 7.2e+06 | DVD1286 (bispecific antibody, human IgG1, kappa, DVD-Ig, outer AB270, inner AB275, linker set 1; V1 wt hIgG1, V2 kappa; also called DVD1286H; DVD1286L) heavy: not shown light: DTQVTQSPSSLSASVGDRVTITCITSTDIDVDMNWYQQKPGKPPKLLISQGNTLRPGVPSRFSSSGSGTDFTFTISSLQPEDFATYYCLQSDNLPLTFGQGTKLEIKRTVAAPEIVLTQSPDFQSVTPKEKVTITCRASQNIGSELHWYQQKPDQSPKLLIKYASHSISGVPSRFSGSGSGTDFTLTINGLEAEDAATYYCHQSDTLPHTFGQGTKVDIKRTVAAPSVFIFPPSDEQLKSGTASVVCLLNNFYPREAKVQWKVDNALQSGNSQESVTEQDSKDSTYSLSSTLTLSKADYEKHKVYACEVTHQGLSSPVTKSFNRGEC
